Paper PMC8887474

B1: CC(m6A)UCG hexamer (ssRNA)
RNA: CCAUCG
modifications: m6A at position 3
B2: UG-mismatch (m6A)UCG Xist hairpin (structured_RNA)
RNA: GGCGUAUCGGCGCC
modifications: m6A at position 6
B3: (m6A)UCG Xist tetraloop hairpin (structured_RNA)
RNA: GGCGCAUCGGCGCC
modifications: m6A at position 6

Target: YTHDC1 YTH domain (Homo sapiens, UniProt Q96MU7 345-509)
Test: ITC

Binder | Kd
B1 | 1270 ± 240 nM
B2 | 2050 ± 100 nM
B3 | 3030 ± 530 nM
